This passage reports MFI, binding result and EC50 results from patent US20240002497A1 (Merck Sharp & Dohme, published 2024).

For test [1], the target named is T1, huNav157chim14-β1-β2-β3 (human).
T1 construct: Whole entry; HEK Flp-In cells; also called huNav157 chimera 14-beta1-beta2-beta3
The experiment in a line: binding FACS, HEK Flp-In.

For test [2], the target named is T2, huNav1.5-β1-β2-β3 (human).
T2 construct: Whole entry; CHO Flp-In or HEK Flp-In cells; also called huNav1.5-beta1-beta2-beta3
Description: binding FACS, HEK Flp-In.

Test [3] has as its target T3, huNav157chim14 (human).
T3 construct: HEK Flp-In cells; also called huNav157 chimera 14
Description: binding FACS, HEK Flp-In.

Test [4] addresses T4, rhNav1.7α + β1-β2-β3 (rhesus monkey).
T4 construct: also called rhNav1.7-beta1-beta2-beta3; rhNav1.7-β1-β2-β3
Description: FACS, CHO Flp-In, competitor 1 µM F010300703.

Test [5] deals with T2, huNav1.5-β1-β2-β3. The experiment in a line: FACS, CHO Flp-In, competitor 1 µM F010300703.
Test [6] addresses T4, rhNav1.7α + β1-β2-β3. The experiment in a line: FACS, CHO Flp-In, competitor 1 µM IRR00092. A general note: Flow cytometry measures light scatter and fluorescence of single cells or particles in a stream.
Test [7] has as its target T2, huNav1.5-β1-β2-β3. The experiment in a line: FACS, CHO Flp-In, competitor 1 µM IRR00092.
Test [8] addresses T5, huNav1.7α + β1-β2-β3 (human, UniProt Q15858 1-1988; A5A6L6 19-218; O60939 30-215; Q2KI11 23-215).
T5 construct: also called huNav1.7-beta1-beta2-beta3; huNav1.7-β1-β2-β3
Description: FACS, CHO Flp-In, competitor 1 µM IRR00092.

In test [9] the target is T2, huNav1.5-β1-β2-β3. The experiment in a line: binding FACS, CHO Flp-In, periplasmic extract.
Test [10] has as its target T5, huNav1.7α + β1-β2-β3. Description: binding FACS, CHO Flp-In, periplasmic extract.
Test [11] deals with T6, huNav1.6α (human, UniProt Q9UQD0 1-1980).
T6 construct: also called huNav1.6 (alpha subunit)
Description: binding FACS on stable huNav1.x paralog HEK293T cell lines.

The target of test [12] is T7, huNav1.5α (human, UniProt Q14524 1-2016).
T7 construct: also called huNav1.5 (alpha subunit)
The description is as above.

The target in test [13] is T8, huNav1.8α (human, UniProt Q9Y5Y9 1-1956).
T8 construct: also called huNav1.8 (alpha subunit)
Described as above.

For test [14], the target named is T9, huNav1.4α (human, UniProt P35499 1-1836).
T9 construct: also called huNav1.4 (alpha subunit)
The description is as above.

In test [15] the target is T10, huNav1.2α (human, UniProt Q99250 1-2005).
T10 construct: also called huNav1.2 (alpha subunit)
Described as above.

The target of test [16] is huNav1.1α (human, UniProt P35498 1-2009). The test is described as above.
The target of test [17] is T11, huNav1.3α (human, UniProt Q9NY46 1-2000).
T11 construct: also called huNav1.3 (alpha subunit)
The description is as above.

The target in test [18] is T12, huNav157chimera14+β1-β2-β3 (human, UniProt Q07699 19-218; O60939 30-215; Q9NY72 23-215).
T12 construct: HEK FlpIn line; also called huNav157 chimera 14-beta1-beta2-beta3; Nav157ch14-β1-β2-β3
Description: binding FACS with purified FLAG3-HIS6 tagged ISVDs. The method, then: (§1) Binding of the ISVDs to cell-expressed Nav1.7α was detected via murine anti-Flag (Sigma, catalog #F1804). Briefly, cells were resuspended in FACS buffer (PBS, 10% FBS, NaN₃) and transferred to a 96-well V-bottom plate at 1×10^5 cells/well. Purified FLAG3-tagged ISVD was diluted in FACS buffer and added to the cells for 30 minutes at 4° C. […] Prior to the read-out, the samples were resuspended in 1 μg/mL propidium iodide (Sigma, catalog #P4170) to exclude dead cells. Between each step, the cells were centrifuged for 5 minutes at 200 grams and washed with 100 μL/well FACS buffer.
(§2) Crude periplasmic extracts containing ISVDs from phage display selections (as described above) were screened in FACS for binding to huNav1.7α but not to huNav1.5a. […] As used in Table 8, the drawings, and throughout the description, Navβ1, Navβ2, and Navβ3 are human homologs unless specifically identified otherwise.

In test [19] the target is T13, rhNav1.7α+β1-β2-β3 (rhesus monkey α subunit with human β …).
T13 construct: P2A cleaves it into α, β1, β2, β3; also called rhNav1.7-beta1-beta2-beta3
Description: binding FACS, CHO FlpIn cells. The method, then: as §1, §2

The target of test [20] is T14, huNav1.7α+β1-β2-β3 (human, UniProt Q15858 1-1988; Q07699 19-218; O60939 30-215; Q9NY72 23-215).
T14 construct: 5N11S variant; also called huNav1.7-beta1-beta2-beta3; huNav1.7α+Navβ1-Navβ2-Navβ3
Description: binding FACS, CHO FlpIn cells. The method, then:
as §1, §2

Test [21] deals with T15, huNav1.7α+β1 (human, UniProt Q15858 1-1988; Q07699 19-218).
T15 construct: also called huNav1.7-beta1; HEKa/β1
The experiment in a line: binding FACS, HEK293 cells. The method, then:
as §1, §2

Test [22] addresses T16, huNav1.5α+β1-β2-β3 (human, UniProt Q14524 1-2016; A5A6L6 19-218; O60939 30-215; Q2KI11 23-215).
T16 construct: in the cell P2A cleaves it into α, β1, β2, β3; also called huNav1.5-beta1-beta2-beta3
The experiment in a line: binding FACS, HEK FlpIn cells. On the procedure:
as §1, §2

In test [23] the target is T14, huNav1.7α+β1-β2-β3. The experiment in a line: binding FACS, HEK FlpIn cells. On the procedure:
as §1, §2

For test [24], the target named is T12, huNav157chimera14+β1-β2-β3. The experiment in a line: binding FACS, HEK FlpIn cells. The method, then: as §1, §2
The target of test [25] is T17, huNav1.7(N146S, V194I, F276V, R277Q, E281V, V331M, E504D, D507E, S508N, N533S)-β1-β2-β3 (human, UniProt Q15858 1-1988; Q07699 19-218; O60939 30-215; Q9NY72 23-215).
T17 construct: Transiently on HEK293T cells; The text prints V1941 for V194I; also called chimeric variant of huNav1.7α with all DI huNav1.7α-rhNav1.7α polymorphisms
The experiment in a line: FACS on transiently transfected HEK293T cells. On the procedure:
as §1
FACS binding studies (as described above) were performed on HEK293T cells transiently transfected with a chimeric variant of huNav1.7α in which all the huNav1.7α-rhNav1.7α polymorphisms of DI are present (N146S, V1941, F276V, R277Q, E281V, V331M, E504D, D507E, S508N, N533S). Replacing the huNav1.7α DI sequence for that of rhNav1.7α is sufficient to abolish the binding of F0103262CO2, F0103265B04, F0103262B06, and F0103265A11 to huNav1.7α, recapitulating the absence of binding on rhNav1.7α (see FIGS. 21A-21B).

What is called EC50 is the concentration at which the effect is half-maximal.

T8 sequence (Q9Y5Y9 whole entry): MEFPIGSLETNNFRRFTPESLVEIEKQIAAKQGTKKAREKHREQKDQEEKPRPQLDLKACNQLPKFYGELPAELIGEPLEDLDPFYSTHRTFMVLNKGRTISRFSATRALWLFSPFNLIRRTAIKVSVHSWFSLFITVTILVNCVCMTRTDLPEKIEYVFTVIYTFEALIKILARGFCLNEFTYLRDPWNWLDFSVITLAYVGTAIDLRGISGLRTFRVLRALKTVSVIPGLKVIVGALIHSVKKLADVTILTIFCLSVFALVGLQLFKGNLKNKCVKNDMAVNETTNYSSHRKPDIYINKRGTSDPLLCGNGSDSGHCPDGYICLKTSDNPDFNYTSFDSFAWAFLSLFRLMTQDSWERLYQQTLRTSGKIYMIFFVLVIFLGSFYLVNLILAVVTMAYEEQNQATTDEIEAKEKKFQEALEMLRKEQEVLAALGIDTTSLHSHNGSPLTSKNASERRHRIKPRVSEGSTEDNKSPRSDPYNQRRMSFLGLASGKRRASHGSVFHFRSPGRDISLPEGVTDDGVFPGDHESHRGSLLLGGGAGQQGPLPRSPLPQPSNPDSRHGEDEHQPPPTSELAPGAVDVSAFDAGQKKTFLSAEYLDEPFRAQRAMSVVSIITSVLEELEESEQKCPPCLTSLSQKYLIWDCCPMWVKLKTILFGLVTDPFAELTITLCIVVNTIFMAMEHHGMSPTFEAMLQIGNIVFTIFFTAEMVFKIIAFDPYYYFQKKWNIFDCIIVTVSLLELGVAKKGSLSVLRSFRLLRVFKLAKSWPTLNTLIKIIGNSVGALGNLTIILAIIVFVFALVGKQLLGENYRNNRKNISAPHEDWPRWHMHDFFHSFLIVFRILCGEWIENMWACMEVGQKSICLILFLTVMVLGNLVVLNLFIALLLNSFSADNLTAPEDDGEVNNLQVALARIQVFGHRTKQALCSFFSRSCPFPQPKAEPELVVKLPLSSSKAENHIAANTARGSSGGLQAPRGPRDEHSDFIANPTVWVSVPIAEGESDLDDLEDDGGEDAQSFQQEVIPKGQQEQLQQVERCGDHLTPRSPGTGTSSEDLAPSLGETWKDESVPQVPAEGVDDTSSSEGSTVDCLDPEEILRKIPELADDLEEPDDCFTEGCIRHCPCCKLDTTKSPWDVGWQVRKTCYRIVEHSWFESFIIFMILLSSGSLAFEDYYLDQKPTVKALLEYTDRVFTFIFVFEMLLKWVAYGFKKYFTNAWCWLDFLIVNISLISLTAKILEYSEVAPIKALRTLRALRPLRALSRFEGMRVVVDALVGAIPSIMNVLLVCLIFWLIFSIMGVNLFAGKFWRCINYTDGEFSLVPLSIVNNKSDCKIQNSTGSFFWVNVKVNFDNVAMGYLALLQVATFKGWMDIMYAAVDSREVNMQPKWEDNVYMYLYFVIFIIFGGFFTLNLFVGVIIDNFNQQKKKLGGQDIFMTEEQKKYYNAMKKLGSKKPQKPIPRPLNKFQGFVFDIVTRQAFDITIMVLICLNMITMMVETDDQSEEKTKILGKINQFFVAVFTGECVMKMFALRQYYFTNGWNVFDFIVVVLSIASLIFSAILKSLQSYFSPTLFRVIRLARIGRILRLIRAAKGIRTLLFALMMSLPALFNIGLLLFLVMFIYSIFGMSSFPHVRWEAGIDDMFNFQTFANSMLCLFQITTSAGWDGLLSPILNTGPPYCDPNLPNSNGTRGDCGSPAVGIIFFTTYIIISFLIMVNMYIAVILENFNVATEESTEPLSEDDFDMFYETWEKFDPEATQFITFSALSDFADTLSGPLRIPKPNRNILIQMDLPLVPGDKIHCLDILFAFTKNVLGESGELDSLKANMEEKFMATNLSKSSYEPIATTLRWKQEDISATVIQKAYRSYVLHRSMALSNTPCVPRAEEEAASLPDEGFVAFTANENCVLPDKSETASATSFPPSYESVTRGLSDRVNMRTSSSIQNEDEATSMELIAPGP
T10 sequence (Q99250 whole entry): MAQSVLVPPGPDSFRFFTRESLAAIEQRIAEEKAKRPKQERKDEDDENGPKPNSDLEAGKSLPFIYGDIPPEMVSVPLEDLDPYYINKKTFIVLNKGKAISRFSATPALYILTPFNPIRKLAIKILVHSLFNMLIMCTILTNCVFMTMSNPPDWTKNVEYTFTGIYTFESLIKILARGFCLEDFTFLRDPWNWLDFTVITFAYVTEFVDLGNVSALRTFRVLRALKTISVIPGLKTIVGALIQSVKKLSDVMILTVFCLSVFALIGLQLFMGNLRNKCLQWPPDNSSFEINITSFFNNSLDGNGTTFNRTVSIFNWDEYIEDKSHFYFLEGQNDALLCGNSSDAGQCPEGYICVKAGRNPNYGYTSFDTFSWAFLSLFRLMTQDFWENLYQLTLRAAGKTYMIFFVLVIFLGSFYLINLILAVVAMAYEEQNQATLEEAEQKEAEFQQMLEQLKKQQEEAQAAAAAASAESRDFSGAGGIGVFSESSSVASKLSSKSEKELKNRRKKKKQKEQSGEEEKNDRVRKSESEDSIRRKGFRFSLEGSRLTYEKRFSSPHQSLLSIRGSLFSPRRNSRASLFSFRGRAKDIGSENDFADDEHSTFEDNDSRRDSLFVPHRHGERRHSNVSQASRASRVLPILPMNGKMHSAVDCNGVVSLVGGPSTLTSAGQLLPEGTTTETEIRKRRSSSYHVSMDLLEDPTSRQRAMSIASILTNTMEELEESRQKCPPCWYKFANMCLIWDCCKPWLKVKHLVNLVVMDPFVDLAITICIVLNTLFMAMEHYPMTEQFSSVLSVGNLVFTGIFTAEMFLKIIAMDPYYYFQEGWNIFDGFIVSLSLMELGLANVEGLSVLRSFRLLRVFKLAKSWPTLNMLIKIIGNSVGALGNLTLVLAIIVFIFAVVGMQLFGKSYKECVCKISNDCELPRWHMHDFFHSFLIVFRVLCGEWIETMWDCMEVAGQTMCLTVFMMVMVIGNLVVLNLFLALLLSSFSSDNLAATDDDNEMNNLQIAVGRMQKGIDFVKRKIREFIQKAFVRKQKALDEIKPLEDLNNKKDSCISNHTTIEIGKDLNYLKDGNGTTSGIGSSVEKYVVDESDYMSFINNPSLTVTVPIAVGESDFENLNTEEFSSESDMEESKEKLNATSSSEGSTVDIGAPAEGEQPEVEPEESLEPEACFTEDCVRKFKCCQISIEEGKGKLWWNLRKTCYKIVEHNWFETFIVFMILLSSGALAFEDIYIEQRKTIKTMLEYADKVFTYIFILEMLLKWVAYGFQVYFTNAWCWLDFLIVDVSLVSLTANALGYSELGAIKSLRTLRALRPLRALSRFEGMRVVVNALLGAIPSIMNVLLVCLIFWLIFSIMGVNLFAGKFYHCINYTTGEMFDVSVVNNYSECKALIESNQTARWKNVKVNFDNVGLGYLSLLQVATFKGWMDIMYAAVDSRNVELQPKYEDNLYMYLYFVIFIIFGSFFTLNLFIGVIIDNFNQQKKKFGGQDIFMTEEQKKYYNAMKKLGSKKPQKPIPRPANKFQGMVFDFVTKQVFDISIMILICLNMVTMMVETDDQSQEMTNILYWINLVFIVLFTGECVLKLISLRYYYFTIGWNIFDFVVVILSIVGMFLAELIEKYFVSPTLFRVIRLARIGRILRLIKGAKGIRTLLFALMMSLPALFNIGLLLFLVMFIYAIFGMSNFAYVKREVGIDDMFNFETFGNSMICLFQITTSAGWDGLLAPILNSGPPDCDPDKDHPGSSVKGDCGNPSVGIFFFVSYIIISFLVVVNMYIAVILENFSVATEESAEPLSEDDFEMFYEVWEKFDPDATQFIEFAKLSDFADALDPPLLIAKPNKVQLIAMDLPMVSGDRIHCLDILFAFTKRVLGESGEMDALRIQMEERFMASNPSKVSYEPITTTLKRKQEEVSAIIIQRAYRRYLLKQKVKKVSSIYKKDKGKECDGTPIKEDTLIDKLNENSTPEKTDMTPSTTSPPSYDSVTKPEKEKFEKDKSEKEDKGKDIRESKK

B1: F0103PMP495F09 (bispecific antibody)
chain: EVQLVESGGGLVQPGGSLRLSCAASGSIFNINSMAWYRRAPGKQRELVASSTNGGSTNYADSVKGRFTISRDNAKRVYLQMNSLTPEDTAVYYCRALLQPSIYDISRTYWGQGTLVTVSSGGGGSGGGGSGGGGSGGGGSGGGGSGGGGSGGGGSGGGGSGGGGSGGGGSEVQLVESGGGLVQAGSSLSLSCAASGRALSTYAMGWFRQAPGKEREFVARISRSGITTYYTDSVKGRFTISRDRAKDTVYLQMNSLKPEDTAIYLCAADASTNPAGYYLRNRYDYWGQGTLVTVSSAAADYKDHDGDYKDHDIDYKDDDDKGAAHHHHHHKAAGGGGG
notes: crude periplasmic extract; also called F103275B05(N93R)-50GS-F0103495F09 bivalent ISVD
On to B1, for which the MFI was found to be 128000 MFI in test [1]; 976 MFI in test [2]; 45100 MFI in test [3]; 6280 MFI in test [4]; 645 MFI in test [5]; 90400 MFI in test [6]. Further, the MFI was found to be 930 MFI in test [7], 93300 MFI in test [8], 483 MFI in [9] and 35600 MFI in [10].

B2: F0103464B09 (parental)-FLAG-HIS6 (VHH)
VHH: EVQLVESGGGLVQPGGSLRLSCATTSRAFIRDVFTGWYRRVPGKERELVARIYNGGNTNYADFAKGRFSISRDNAKKMVTLRMSNLKPEDTGVYYCLFSGTINTGREYRSGDYWGQGTLVTVSS
notes: also called F103464B09
Turning to B2, the binding result in test [11], in test [12], in test [13], in test [14], in [15] and in test [16] was “no binding” in each case. Further, the binding result in test [17] is “no binding”; in test [18], “binds”; in [22], “no binding”. Also, the figures for the concentration giving a half-maximal response (EC50) in test [19], in test [20] and in test [21] were 27 nM, 4.1 nM and 4.1 nM, respectively.

B3: F0103PMP500E03 (bispecific antibody)
chain: EVQLVESGGGLVQPGGSLRLSCAASGSIFNINSMAWYRRAPGKQRELVASSTNGGSTNYADSVKGRFTISRDNAKRVYLQMNSLTPEDTAVYYCRALLQPSIYDISRTYWGQGTLVTVSSGGGGSGGGGSGGGGSGGGGSGGGGSGGGGSGGGGSGGGGSGGGGSGGGGSEVQLVESGGGLVQAGGSLRLSCAASGRTFSRYQMGWFRQAPGKEREFVAYISWSGSTRYVDSVKGRFTISRDNAKNTVYLQMNSLKPEDTAVYHCAAGTAGIISSRPETYDSWGQGTQVTVSSAAADYKDHDGDYKDHDIDYKDDDDKGAAHHHHHHKAA
notes: crude periplasmic extract; also called F103275B05(N93R)-50GS-F0103500E03 bivalent ISVD
In the case of B3, the MFI is 87200 MFI in [1]; 1110 MFI in [2]; 47300 MFI in [3]; 21500 MFI in test [4]; 852 MFI in test [5]; 96900 MFI in test [6]. Also, the MFI in test [7] came out at 975 MFI; in test [8], 33700 MFI; in [9], 521 MFI; in test [10], 22400 MFI.

B4: F0103262C02 (parental)-FLAG-HIS6 (VHH)
VHH: EVQLVESGGGLVQAGGSLTLSCAASGLPFGLYILGWIRRAPGKERDFVAAISRSGRDTVYANSVKGRFTISRDNAKNMVYLRMDNLRPEDTAAYYCAVDSVPRGTPTITESEYAIWGQGTLVTVSS
notes: also called F0103262CO2; F103262CO2
With B4, the binding result in test [11], in test [12], in test [13], in test [14], in test [15] and in test [16] was “no binding” each time. In addition, the binding result in test [17] is “no binding”; in test [19], “no binding”; in test [22], “no binding”; in [25], “no binding (tested: 1 µM)”. Also, the concentration for a half-maximal effect (EC50) in test [20] came out at 320 nM; in test [21] it was 180 nM; in test [23], 380 nM; in test [24] it was 470 nM.

B5: F0103PMP505D08 (bispecific antibody)
chain: EVQLVESGGGLVQPGGSLRLSCAASGSIFNINSMAWYRRAPGKQRELVASSTNGGSTNYADSVKGRFTISRDNAKRVYLQMNSLTPEDTAVYYCRALLQPSIYDISRTYWGQGTLVTVSSGGGGSGGGGSGGGGSGGGGSGGGGSGGGGSGGGGSGGGGSGGGGSGGGGSEVQLVESGGGLVQAGGSLRLSCVTSGRTSDLSTMNWFRQAPGKEREFVARITRRGSTYYAESVKERFIISRDNAKNTVYLQMNSLKPEDTANYYCTAASEMGYHYRGQGTQVTVSSAAADYKDHDGDYKDHDIDYKDDDDKGAAHHHHHHKAAGGGGG
notes: crude periplasmic extract; also called F103275B05(N93R)-50GS-F0103505D08 bivalent ISVD
Consider B5, for which the MFI came to 136000 MFI in test [1]; 1200 MFI in [2]; 78400 MFI in test [3]; 22500 MFI in [4]; 845 MFI in test [5]; 108000 MFI in test [6]. The MFI in [7] amounted to 964 MFI; in test [8], 95400 MFI; in [9], 891 MFI; in test [10] it was 106000 MFI.
